Results on 1 molecule are retold here after PMC6330309, “Multispecific Antibody Development Platform Based on Human Heavy Chain Antibodies” (Frontiers in Immunology, 2018).

The test concerns the target T1, extracellular domain of human BCMA (Homo sapiens, UniProt Q02223).
T1 construct: B cell maturation antigen (BCMA), human, extracellular domain; PDB 4ZFO chain F was only the search model for molecular replacement; For the Octet experiments the methods say that antigens were either expressed in-house (ECD with His-tag) or commercially available
Description: crystal structure; BCMA and UniAb VH mixed at a 1:2 molar ratio for 20 min at 4°C, complex isolated by SEC (20 mM PBS, 250 mM NaCl); sitting drop vapor diffusion, 0.2 M sodium malonate pH 4.0, 20% PEG 3350; 2.6 Å; two complexes in the asymmetric unit. The settings on record: both partners purified. In general terms: In gel filtration, larger molecules generally elute earlier.

T1 sequence (Q02223 1-54): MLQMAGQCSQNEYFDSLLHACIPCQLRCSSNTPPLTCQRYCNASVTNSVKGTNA

B1: anti-BCMA UniAb VH (IgHV3-23) (VHH)
VHH: EVQLVESGGGLVQPGGSLRLSCAASGFTVSSYGMSWVRQAPGKGPEWVSGIRGSDGSTYYADSVKGRFTISRDNSKNTLYLQMNSLRAEDTAVYYCAKQGENDGPFDHRGQGTLVTVS
notes: fully human VH single domain (IgHV3-23) from a UniRat heavy chain-only antibody, with R109 in framework 4 (W101R, Kabat); Human VH used as a single domain, no light chain and no Fc; also called UniAb VH (VH3-23)
For B1, the binding result was “binds”.
